From patent US20210371503A1 (UNIVERSITY OF COLOGNE, published 2021)
Numbering of substitutions follows the chain as printed.

Columns and labels:
[1] = biological target: T1, prefusion stabilized SARS-CoV-2 S ectodomain (SARS-CoV-2, UniProt P0DTC2 14-1208); experiment: ELISA, coated S ectodomain [cont'd]
T1 construct: also called SARS-CoV-2 spike ectodomain; ectodomain of the spike (S) homotrimer of SARS-CoV-2

[2] = biological target: T1, prefusion stabilized SARS-CoV-2 S …; experiment: ELISA, coated S ectodomain [cont'd]; remark: listed apart in the source
[3] = biological target: T1, prefusion stabilized SARS-CoV-2 S …; experiment: ELISA, coated S ectodomain

B1: HbnC2t1p2_D9 (antibody, V domains shown)
VH: QVQLVESGGGVVQPGRSLRLSCAASGFTFSSYGMHWVRQAPGKGLEWVAVIWYDGRNKYYVDSVKGRFTISRDNSKNTLYLQISSLRAEDTAVYYCARAARRPVVTDTMAYYMDVWGKGTTVTVSS
VL: EIVLTQSPATLSLSPGERATLSCRASLSLSSYLAWYQQKPGQAPRLLIYDASNRATGIPARFSGSGSGTDFTLTISSLEPEDFAVYYCQQRSNWPPTWTFGQGTKAEIKR
Work on B1 yielded an EC50 [1] of 0.04 µg/mL.

B2: HbnC3t1p1_G4 (antibody, V domains shown)
VH: EVQLVESGGGLVQPGGSLRLSCAASGFTVSSNYMSWVRQAPGKGLEWVSVIYSGGSTFYADSVKGRFTISRDNSKNTLYLQMNSLRAEDTAVYYCARDFGDFFFDYWGQGTLVTVSS
VL: EIVLTQSPGTLSLSPGERATLSCRASQSVSSYLAWYQQKPGQAPRLLIYGVSSRATGIPDRFSGSGSGTDFTLTISRLEPEDFAVYYCQQYGSSPRTFGQGTKVEIK
B2 showed an EC50 [1] of 0.02 µg/mL.

B3: HbnC3t1p2_B10 (antibody, V domains shown)
VH: B2 VH with T28I, F99Y, F102Y
VL: B2 VL with Y49S, V51A, T56A, S76N, V104L
Binder B3 has an EC50 [1] of 0.22 µg/mL.

B4: HbnC4t1p1_D5 (antibody, V domains shown)
VH: EVQLVESGGGLVQPGRSLRLSCAASGFTFDDYAMHWVRQAPGKGLEWVSGISWNSGSIGYADSVKGRFTISRDNAKNSLYLQMNSLRAEDTGLYYCAKDINYDSGGYHKNYFDYWGQGTLVTVSS
VL: DIQMTQSPSSLSASVGDRATITCRASQSISSYLNWYQEKPGKAPKLLIYAASSLQSGVPSRFSGSGSGTDFTLTISSLQPEDFATYYCQQSYSNPLTFGGGTKVEIK
B4 was tested, and the EC50 [1] was 0.25 µg/mL.

B5: MnC1t3p1_G9 (antibody, V domains shown)
VH: EVQLLESGGGLVQPGGSLRLSCAASGFTFRNYAMTWVRQAPGKGLEWVSGISDSGDRTYNADSVKGRFSISRDNSKNTLHLQMNSLRAEDTAVYYCALASGSYFGGANYWGQGTLVTVSS
VL: QAVVTQEPSLTVSPGGTVTLTCGSSTGPVTSDHYPYWFQQKPGQAPTTLIYDTNNKHSWTPARFSGSLLGGKAALTLSGAQPEDEAEYYCLLSYTGARVFGGGTKLTVL
Binder B5 has an EC50 [2] of 0.33 µg/mL.

B6: MnC2t1p1_A3 (antibody, V domains shown)
VH: EVQLVESGGGLVQPGGSLRLSCAASGFTVSSNYMSWVRQAPGRGLEWVSVIYSGGSTFYADSVKGRFTISRDNSKNTLYLQMNSLRPEDTAVYYCATGARFGESPFDYWGQGTLVTVSS
VL: DIQMTQSPSSVSASVGDRVTITCRASQGISSWLAWYQQKPGKAPKLLIYAASSLQSGVPSRFSGSGSGTDFTLTISSLQPEDFATYYCQQANSFPGTFGQGTKVEIK
B6 showed an EC50 [2] of 0.05 µg/mL.

B7: MnC2t1p1_C5 (antibody, V domains shown)
VH: B6 VH with R43K, F58Y, P87A
VL: B6 VL
With B7 the EC50 [2] was 0.07 µg/mL.

B8: HbnC3t1p1_F4 (antibody, V domains shown)
VH: QVQLVESGGGVVQPGRSLRLSCAATGFTFRRYGMHWVRQAPGKGLEWVAGILFDGSNKYYVDSVKGRFTISRDSSRNTLYLQLNSLRREDTAVYYCAKGGDYEWELLESWGQGTLVTVSS
VL: DIQMTQSPSTVSASVGDRVTITCRASQSIDNWLAWYQEKPGKAPKVLIYKASSLESGVPSRFSGRGSGTEFTLTISSLQPGDFATYYCQHYHSFPLTFGGGTKVDIK
Work on B8 yielded an EC50 [1] of 0.04 µg/mL.

B9: FnC1t1p2_A5 (antibody, V domains shown)
VH: QVQLVQSGAEVKKPGASVKVSCKASGYTFTSYDINWVRQATGQGLEWMGWMNPNSGNTGYAQKFQGRVTMTRNTSISTAYMELSSLRSEDTAVYYCARATTDCSSTSCWSLDFWSGYYTGGREKIFDYWGQGTLVTVSS
VL: not shown
B9: binds [3].

B10: CnC2t1p1_B4 (antibody, V domains shown)
VH: QVQLVQSGAEVKKPGASVKVSCKASGYTFTSYGISWVRQAPGQGLEWMGWISAYNGNTNYAQKLQGRVTMTTDTSTSTAYMELRSLRSDDTAVYYCARDGELLGWFDPWGQGTLVTVSS
VL: QSALTQPASVSGSPGQSITISCTGTSSDVGSYNLVSWYQQHPGKAPKLMIYEGSKRPSGVSNRFSGSKSGNTASLTISGLQAEDEADYYCCSYAGSSTWVFGGGTKLTVL
In the case of B10, the EC50 [3] is reported as 0.03 µg/mL.

B11: CnC2t1p1_E8 (antibody, V domains shown)
VH: QVQLVQSGAEVKNPGASVKVSCKASGYIFTNYYIHWVRQAPGQGLEWVGWIHSLSGGTSYAQKFQGRVTLTRDASIRTAYMELSRLGSDDTALYYCARASVSTITDFDYWGQGTLVAVSS
VL: B10 VL with S27G, M49V, G53A, S54T, S65F, G66A, S96V, S97R, W99V
With B11 the EC50 [3] was 0.13 µg/mL.

B12: CnC2t1p1_G6 (antibody, V domains shown)
VH: B11 VH with N13K, S75P, R85G, L93V, S102A
VL: B10 VL with S27G, V29I, H41Y, M49I, G53A, S65F, G66A, S96V, S97R, W99V
In the case of B12, the EC50 [3] is reported as 0.31 µg/mL.

B13: CnC2t1p1_D6 (antibody, V domains shown)
VH: EVQLVESGGGLVQPGRSLRLSCTASGFTFGDYAMSWFRQAPGKGLEWVGFIRSKAYGGTTEYAASVKGRFTISRDDSKSIAYLQMNSLKTEDTAVYYCTRVRRLWFGSYYYGMDVWGQGTTVTVSS
VL: not shown
For B13, the EC50 [3] was 0.03 µg/mL.

B14: CnC2t1p1_E12 (antibody, V domains shown)
VH: B13 VH with A81V
VL: not shown
B14 showed an EC50 [3] of 0.03 µg/mL.

B15: MnC2t2p1_C11 (antibody, V domains shown)
VH: QVQLVQSGAEVKKPGSSVKVSCKASGGTFSRYTIIWVRQAPGQGLEWMGRIIPILDIANYAQKFQGRVTITADKSTSTAYMELSSLRSEDTAVYYCAREGGLDYFGSRNSGWTYTWFDPWGQGTLVTVSS
VL: DIQMTQSPSSLSASVGDRVTITCRASQNISSYLNWYQQKPGKAPNLLIYAASSLQSGVPPRFSGSGSGTDFTLTISSLQPEDFATYYCQQSYSTLYSFGQGTKLEIK
For B15, the EC50 [2] was 0.02 µg/mL.

B16: HbnC3t1p1_C6 (antibody, V domains shown)
VH: QMQLVQSGPEVKKPGTSVKVSCKASGFTFTSSAVQWVRQARGQRLEWIGWIVVGSGNTNYAQKFQERVTITRDMSTSTAYMELSSLRSEDTAVYYCAAPHCSSTICYDGFDIWGQGTMVTVSS
VL: not shown
B16 was tested, and the EC50 [1] was 0.06 µg/mL.

B17: HbnC3t1p2_C6 (antibody, V domains shown)
VH: B16 VH with T30S, E66G, S77R, V93M, H100Y, I105R, G109A
VL: not shown
B17 gave an EC50 [1] of 0.04 µg/mL.

B18: FnC1t2p1_D4 (antibody, V domains shown)
VH: QVQLVQSGSELKKPGASVKVSCKASGYTFLRFAMNWLRQAPGQGLEWMGWIDTNTGTPTYAQGFTGRFVFSLDTSVSTAYLQISSLKAEDTAVYYCARSLRGANLVPWGQGTLVTVSS
VL: DIQMTQSPSSLSASVGDRVTITCQASQDVSNYLNWYQQQPGKAPKLLIYDAFNLETGVPSRFSGSGSGTDFTFTISSLQPEDIATYYCQQYDNLPLTFGGGTKVEIK
For B18, the EC50 [3] was 0.02 µg/mL.

B19: FnC1t2p1_G5 (antibody, V domains shown)
VH: B18 VH
VL: B18 VL
B19 showed an EC50 [1] of 0.02 µg/mL.

B20: CnC2t1p1_B10 (antibody, V domains shown)
VH: QVQLVQSGAEVKKPGSSVKVSCKASGGTFSSYAISWVRQAPGQGLEWMGGIIPIFGTANYAQKFQGRVTITADKSTSTAYMELSSLRSEDTAVYYCARVSGYDSSGYWGDYWGQGTLVTVSS
VL: EIVLTQSPATLSLSPGERATLSCRASQSVSSYLAWYQQKPGQAPRLLIYDASNRATGIPARFSGSGSGTDFTLTISSLEPEDFAVYYCQQRSNWPPALTFGGGTKVEIK
With B20 the EC50 [3] was 0.32 µg/mL.
